B1: Xcc XopR-FL (aa 1-411) (natural protein)
chain: MRLSQLFNSRHRVAPEPHGANPNKTTPLIPGASPQHPLSQAPKSTTSQGASKSHRGMLASARKSLASLRKQLPLTCMGSSPTLETVESPPAHTAAVTPGRTQQQHGTQARVDQRWQPPVPNATDHERVQRPQPQPQQTPPTRQSMSVPPKPARAQQLHGPQRPVDPRMQPPIPERMRRDEGQPPQHDKPASPPVPITPAQSSLPSPRPQPGRQPSLRRLDLQLEEITRQCSDIQKQLFMEDREATPQEQHLLKTRAALIAWRNEVRDSQLEALLVALAPMEDIRAPRTTSSGLAMVQMDAMQHNRREVLKARRKSVDRAALARNYARAQRRLESLKQGDAPKEQIRRLQRMMQGYQNMLALEQIVRSTDDQLERLGAPRLMSGIPTTAEQRRQSFEKERDAHQEAIDNGYY
B2: Arabidopsis thaliana Formin 1 AtFH1-FH1C (domain or fragment)
chain: RQGLQSQLLSSPSNSHGGQGFLKQLDALRSRSPSSSSSSVCSSPEKASHKSPVTSPKLSSRNSQSLSSSPDRDFSHSLDVSPRISNISPQILQSRVPPPPPPPPPLPLWGRRSQVTTKADTISRPPSLTPPSHPFVIPSENLPVTSSPMETPETVCASEAAEETPKPKLKALHWDKVRASSDREMVWDHLRSSSFKLDEEMIETLFVAKSLNNKPNQSQTTPRCVLPSPNQENRVLDPKKAQNIAILLRALNVTIEEVCEALLEGNADTLGTELLESLLKMAPTKEEERKLKAYNDDSPVKLGHAEKFLKAMLDIPFAFKRVDAMLYVANFESEVEYLKKSFETLEAACEELRNSRMFLKLLEAVLKTGNRMNVGTNRGDAHAFKLDTLLKLVDVKGADGKTTLLHFVVQEIIRAEGTRLSGNNTQTDDIKCRKLGLQVVSSLCSELSNVKKAAAMDSEVLSSYVSKLSQGIAKINEAIQVQSTITEESNSQRFSESMKTFLKRAEEEIIRVQAQESVALSLVKEITEYFHGNSAKEEAHPFRIFLVVRDFLGVVDRVCKEVGMINERTMVSSAHKFPVPVNPMMPQPLPGLVGRRQSSSSSSSSSTSSSDEDEHNSISLVS

Experiments:
[1] = target: the molecule itself; assay: SPR; bivalent model, koff1
Xcc XopR-FL (aa 1-411) = target: B1; assay: SPR; bivalent model, koff1

B1
koff [1]: 0.27 s⁻¹

B2
koff (Xcc XopR-FL (aa 1-411)): 0.0152 s⁻¹
